Measured values from patent publication US20230203162A1 (NUMAB THERAPEUTICS, published 2023).

Legend:
[1] = biological target: T1, plasma-membranous human MSLN on cell lines (H226, HPAC, H292, OVCAR-3, MeT-5A) (human, UniProt Q13421 296-598); assay: flow cytometry on Met-5A cells, protein L-PE, 4PL fit
T1 construct: whole, on cells; also called human MSLN on H226 cells; mesothelin on target cells

[2] = biological target: soluble mesothelin (sMSLN); assay: cell-based or functional assay
[3] = biological target: T1, plasma-membranous human MSLN on cell …; assay: flow cytometry on HPAC cells, protein L-PE, 4PL fit
[4] = biological target: T1, plasma-membranous human MSLN on cell …; assay: flow cytometry on HPAC cells
[5] = biological target: T1, plasma-membranous human MSLN on cell …; assay: cell-based or functional assay
[6] = biological target: T1, plasma-membranous human MSLN on cell …; assay: flow cytometry on H292 cells, protein L-PE, 4PL fit
[7] = biological target: T1, plasma-membranous human MSLN on cell …; assay: flow cytometry on H292 cells
[8] = biological target: T1, plasma-membranous human MSLN on cell …; assay: flow cytometry on H226 cells, protein L-PE, 4PL fit
[9] = biological target: T1, plasma-membranous human MSLN on cell …; assay: flow cytometry on H226 cells
[10] = biological target: T1, plasma-membranous human MSLN on cell …; assay: cell-based or functional assay; remark: listed apart in the source
[11] = biological target: human serum albumin (hSA, Sigma-Aldrich A3782) (human, UniProt P02768 25-609); assay: SPR, hSA amine-coupled to CM5, antibody injected, pH 5.5, 1:1 Langmuir
[12] = biological target: T1, plasma-membranous human MSLN on cell …; assay: cell-based or functional assay; remark: listed apart in the source
[13] = biological target: T1, plasma-membranous human MSLN on cell …; assay: cell-based or functional assay; remark: listed apart in the source
[14] = biological target: T1, plasma-membranous human MSLN on cell …; assay: cell-based or functional assay; remark: listed apart in the source
[15] = biological target: soluble mesothelin (sMSLN); assay: cell-based or functional assay; remark: listed apart in the source
[16] = biological target: T2, recombinant human MSLN (purchased from Peprotech) (human, UniProt Q13421 296-598, limits assumed); assay: SPR (Biacore T200), human MSLN; which of the two formats (MSLN immobilized / antibody captured) not given
T2 construct: Bought protein; also called recombinant human mesothelin

[17] = biological target: T3, human recombinant CD3ε protein (Sino Biological) (human, UniProt P07766 23-126); assay: SPR, CD3ε amine-coupled to CM5, antibody injected; footnote: ka1 of a two-state fitting model
T3 construct: Bought protein; also called recombinant human CD3ε; human CD3ε

[18] = biological target: T1, plasma-membranous human MSLN on cell …; assay: cell-based or functional assay; remark: listed apart in the source
[19] = biological target: T3, human recombinant CD3ε protein (Sino …); assay: SPR, CD3ε amine-coupled to CM5, antibody injected
[20] = biological target: T3, human recombinant CD3ε protein (Sino …); assay: SPR, CD3ε amine-coupled to CM5, antibody injected; footnote: kd1 of a two-state fitting model
[21] = biological target: T1, plasma-membranous human MSLN on cell …; assay: cell-based or functional assay; remark: listed apart in the source

B1: PRO2100 (MATCH4) (other)
chain 1: DIQMTQSPSSLSASVGDRVTITCQASQNIYSNLAWYQQKPGKAPKLLIYDASDLASGVPSRFSGSGSGTDFTLTISSLQPEDFATYYCQQVRSSSDIDNPFGTGTKVTVLGGGGGSGGGGSGGGGSGGGGSQVQLVESGGGLVQPGGSLRLSCAASGFSLSSYAMGWVRQAPGKGLEWIGYISTIANTYYASWAKGRFTISRDNSKNTVYLQMNSLRAEDTAVYYCAREIRSGWVDYGFSIWGQGTLVTVSSGGGGSGGGGSEVQLVESGGGLVQPGGSLRLSCAASGFSLSSYDMSWVRQAPGKGLAWIGASYASGPTYYASWAKGRFTISRDNSKNTVYLQMNSLRAEDTATYFCARGGWTGTSHSNIWGQGTLVTVSSGGGSGGGSEVQLVESGGGLVQPGGSLRLSCAASGFSFSSSYWICWVRQAPGKCLEWVGCVFTGDGTTYYASWAKGRFTISRDNSKNTVYLQMNSLRAEDTATYFCARPVSVYYYGMDLWGQGTLVTVSS
chain 2: DIQMTQSPSSLSASVGDRVTITCQASQNIYSNLAWYQQKPGKAPKLLIYDASDLASGVPSRFSGSGSGTDFTLTISSLQPEDFATYYCQQVRSSSDIDNPFGTGTKVTVLGGGGGSGGGGSGGGGSGGGGSQVQLVESGGGLVQPGGSLRLSCAASGFSLSSYAMGWVRQAPGKGLEWIGYISTIANTYYASWAKGRFTISRDNSKNTVYLQMNSLRAEDTAVYYCAREIRSGWVDYGFSIWGQGTLVTVSSGGGGSGGGGSDVVMTQSPSSLSASVGDRVTITCQASQIISSRSAWYQQKPGQPPKLLIYQASKLASGVPSRFSGSGSGTDFTLTISSLQPEDFATYYCQCTYIDSNFGAFGCGTKLTVLGGGSGGSDIQMTQSPSSLSASVGDRVTITCQSSQSVFSNNYLAWFQQKPGQSPKRLIYSASTLASGVPSRFSGSGSGTDFTLTISSLQPEDFATYYCLGSYACSSADCYVFGTGTKVTVLG
notes: Variant of PRO2000 with anti-MSLN 54-01-G02-sc01 N66A (potential glycosylation site mutated)
EC50 [1]: 62.8 pM | max. binding (MFI) [1]: 7480 MFI | shift of H226 killing potency with 100 ng/ml sMSLN [2]: 2 fold | EC50 [3]: 1010 pM | max. binding (MFI) [3]: 18000 MFI | fold binding against PRO1872 [4]: 1.5 to 2 fold | EC50 target cell killing, H226 cells, 100 ng/ml sMSLN [5]: 3.56 pM | EC50 target cell killing, H226 cells, no sMSLN [5]: 1.54 pM | max. killing, H226 cells, 100 ng/ml sMSLN [5]: 58.9% | max. killing, H226 cells, no sMSLN [5]: 46.3% | EC50 [6]: 1300 pM | max. binding (MFI) [6]: 6250 MFI | fold lower binding against PRO1872 [7]: 2 fold | EC50 [8]: 524 pM | max. binding (MFI) [8]: 363000 MFI | fold binding against PRO1872 [9]: 3 fold

B2: PRO1872 (scMATCH3, MSLNlow KD×CD3×hSA) (other)
chain: DVVMTQSPSSLSASVGDRVTITCQASQIISSRSAWYQQKPGQPPKLLIYQASKLASGVPSRFSGSGSGTDFTLTISSLQPEDFATYYCQCTYIDSNFGAFGCGTKLTVLGGGGGSEVQLVESGGGLVQPGGSLRLSCAASGFSLSSYDMSWVRQAPGKGLAWIGASYASGPTYYASWAKGRFTISRDNSKNTVYLQMNSLRAEDTATYFCARGGWTGTSHSNIWGQGTLVTVSSGGGGSGGGGSGGGGSGGGGSDIQMTQSPSSLSASVGDRVTITCQSSQSVFSNNYLAWFQQKPGQSPKRLIYSASTLASGVPSRFSGSGSGTDFTLTISSLQPEDFATYYCLGSYACSSADCYVFGTGTKVTVLGGGGGSEVQLVESGGGLVQPGGSLRLSCAASGFSFSSSYWICWVRQAPGKCLEWVGCVFTGDGTTYYASWAKGRFTISRDNSKNTVYLQMNSLRAEDTATYFCARPVSVYYYGMDLWGQGTLVTVSSGGGGSGGGGSDIQMTQSPSSLSASVGDRVTITCQASESIGNYLAWYQQKPGKAPKLLIYSASTLASGVPSRFSGSGSGTDFTLTISSLQPEDFATYYCQSTDYGDSYIFGTGTKVTVLGGGGGSGGGGSGGGGSGGGGSEVQLVESGGGLVQPGGSLRLSCAASGISVSNDYYMCWVRQAPGKGLEWIGCISTYIGNTHYASWAKGRFTISRDNSKNTVYLQMNSLRAEDTAVYYCAKNAGYPGYRYAIDLWGQGTLVTVSS
notes: also called MSLN.CD3
EC50 [1]: 194 pM | max. binding (MFI) [1]: 11200 MFI | Fold-diff Window (mean Met-5A EC50 / mean H226 EC50) [10]: 1.1 fold | average mean H226 EC50, cell killing (LDH release) [10]: 120 pM | average mean Met-5A EC50, cell killing (LDH release) [10]: 138 pM | Kd [11]: 175 pM | koff [11]: 6.39e-05 s⁻¹ | kon [11]: 366000 M⁻¹ s⁻¹ | fold killing potency against PRO2000, H292 cells [12]: 7 fold | fold killing potency against PRO2000, MeT-5A cells [12]: 16 fold | fold lower H226 killing potency against PRO2000, no sMSLN [12]: 20 fold | fold lower H226 killing potency against PRO2100, no sMSLN [12]: 10 fold | fold reduction of H226 killing potency with 500 ng/ml sMSLN [2]: 106 fold | shift of H226 killing potency with 100 ng/ml sMSLN [2]: 10 fold | EC50 [3]: 2160 pM | max. binding (MFI) [3]: 33300 MFI | EC50 CD8+ T cell activation, H292 cells [13]: 34.1 pM | EC50 CD8+ T cell activation, HPAC cells [13]: 47.2 pM | EC50 target cell killing, H292 cells [13]: 91 pM | EC50 target cell killing, HPAC cells [13]: 30.3 pM | EC50 target cell killing, H226 cells, 100 ng/ml sMSLN [5]: 130 pM | EC50 target cell killing, H226 cells, no sMSLN [5]: 13.4 pM | max. killing, H226 cells, 100 ng/ml sMSLN [5]: 60.7% | max. killing, H226 cells, no sMSLN [5]: 54% | EC50 [6]: 709 pM | max. binding (MFI) [6]: 12200 MFI | EC50 H226 target cell killing, 50 ng/ml soluble mesothelin [14]: 636 pM | EC50 H226 target cell killing, 500 ng/ml soluble mesothelin [14]: 4650 pM | EC50 H226 target cell killing, no mesothelin [14]: 43.9 pM | Delta 0-50 ng/mL sMSLN (x-fold change in H226 killing potency) [15]: 8.5 fold | Delta 0-500 ng/mL sMSLN (x-fold change in H226 killing potency) [15]: 78.2 fold | Kd [16]: 187 pM | koff [16]: 4.96e-05 s⁻¹ | kon [16]: 265000 M⁻¹ s⁻¹ | kon [17]: 293000 M⁻¹ s⁻¹ | EC50 CD8+ T cell activation, H226 cells [18]: 0.09 pM | EC50 CD8+ T cell activation, Met-5A cells [18]: 10.9 pM | EC50 target cell killing, H226 cells [18]: 5.31 pM | EC50 target cell killing, Met-5A cells [18]: 8.88 pM | Kd [19]: 12100 pM | koff [20]: 0.00508 s⁻¹ | EC50 [8]: 1570 pM | max. binding (MFI) [8]: 467000 MFI | EC50 CD8+ T cell activation with H226 cells, 50 ng/ml MSLN [21]: 200 pM | EC50 CD8+ T cell activation with H226 cells, 500 ng/ml MSLN [21]: 1120 pM | EC50 CD8+ T cell activation with H226 cells, no MSLN [21]: 22.9 pM
